Legend:
HeLa Kyoto [1] = experiment: solubility in G1/S (NP-40 vs SDS abundance) (log2 ratio); higher = more soluble; details: cell cycle stage: G1/S
HeLa Kyoto [2] = experiment: melting temperature (median over replicates), in situ; higher = more thermally stable
HeLa Kyoto [3] = experiment: solubility change mitosis vs G1/S (difference of NP-40 vs SDS log2 ratios) (log2 ratio difference); higher = more soluble in mitosis
HeLa Kyoto [4] = experiment: thermal stability score vs G1/S (z-score of summed log2 fold changes over temperatures); higher = more thermally stable than in G1/S
[5] = cell cycle stage: early G1 (4.5 h after nocodazole release)
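Throughout, for melting temperature (median over replicates), in situ: HeLa Kyoto cells synchronized by double thymidine or nocodazole block, proteins quantified by TMT10plex mass spectrometry, three independent biological replicates.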
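Throughout, for solubility change mitosis vs G1/S (difference of NP-40 vs SDS log2 ratios): synchronized HeLa Kyoto cells (double thymidine block for G1/S, nocodazole release for mitosis), protein amounts in NP-40 versus SDS lysates quantified by mass spectrometry, three biological replicates.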
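Throughout, for solubility in G1/S (NP-40 vs SDS abundance): HeLa Kyoto cells arrested at G1/S by double thymidine block, proteins quantified by TMT10plex mass spectrometry in mild NP-40 versus SDS extracts, three biological replicates.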
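Throughout, for thermal stability score vs G1/S (z-score of summed log2 fold changes over temperatures): synchronized HeLa Kyoto cells, proteins quantified by TMT10plex mass spectrometry, three biological replicates, mitosis taken 0.5 h after nocodazole release, G1/S directly after double thymidine block.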

Substance	solubility in G1/S (log2) (HeLa Kyoto [1])	melting temperature (HeLa Kyoto [2]; cell cycle stage: G1/S)	melting temperature (HeLa Kyoto [2]; cell cycle stage: mitosis)	solubility change mitosis (log2) (HeLa Kyoto [3])	thermal stability score (HeLa Kyoto [4]; [5])	thermal stability score (HeLa Kyoto [4]; cell cycle stage: mitosis)
MASSRCPAPRGCRCLPGASLAWLGTVLLLLADWVLLRTALPRIFSLLVPTALPLLRVWAVGLSRWAVLWLGACGVLRATVGSKSENAGAQGWLAALKPLAAALGLALPGLALFRELISWGAPGSADSTRLLHWGSHPTAFVVSYAAALPAAALWHKLGSLWVPGGQGGSGNPVRRLLGCLGSETRRLSLFLVLVVLSSLGEMAIPFFTGRLTDWILQDGSADTFTRNLTLMSILTIASAVLEFVGDGIYNNTMGHVHSHLQGEVFGAVLRQETEFFQQNQTGNIMSRVTEDTSTLSDSLSENLSLFLWYLVRGLCLLGIMLWGSVSLTMVTLITLPLLFLLPKKVGKWYQLLEVQVRESLAKSSQVAIEALSAMPTVRSFANEEGEAQKFREKLQEIKTLNQKEAVAYAVNSWTTSISGMLLKVGILYIGGQLVTSGAVSSGNLVTFVLYQMQFTQAVEVLLSIYPRVQKAVGSSEKIFEYLDRTPRCPPSGLLTPLHLEGLVQFQDVSFAYPNRPDVLVLQGLTFTLRPGEVTALVGPNGSGKSTVAALLQNLYQPTGGQLLLDGKPLPQYEHRYLHRQVAAVGQEPQVFGRSLQENIAYGLTQKPTMEEITAAAVKSGAHSFISGLPQGYDTEVDEAGSQLSGGQRQAVALARALIRKPCVLILDDATSALDANSQLQVEQLLYESPERYSRSVLLITQHLSLVEQADHILFLEGGAIREGGTHQQLMEKKGCYWAMVQAPADAPE [TAP1]	-0.0535	49.8 °C	50.5 °C	-0.112	0.594	1.74
MACPALGLEALQPLQPEPPPEPAFSEAQKWIEQVTGRSFGDKDFRTGLENGILLCELLNAIKPGLVKKINRLPTPIAGLDNIILFLRGCKELGLKESQLFDPSDLQDTSNRVTVKSLDYSRKLKNVLVTIYWLGKAANSCTSYSGTTLNLKEFEGLLAQMRKDTDDIESPKRSIRDSGYIDCWDSERSDSLSPPRHGRDDSFDSLDSFGSRSRQTPSPDVVLRGSSDGRGSDSESDLPHRKLPDVKKDDMSARRTSHGEPKSAVPFNQYLPNKSNQTAYVPAPLRKKKAEREEYRKSWSTATSPLGGERPFRYGPRTPVSDDAESTSMFDMRCEEEAAVQPHSRARQEQLQLINNQLREEDDKWQDDLARWKSRRRSVSQDLIKKEEERKKMEKLLAGEDGTSERRKSIKTYREIVQEKERRERELHEAYKNARSQEEAEGILQQYIERFTISEAVLERLEMPKILERSHSTEPNLSSFLNDPNPMKYLRQQSLPPPKFTATVETTIARASVLDTSMSAGSGSPSKTVTPKAVPMLTPKPYSQPKNSQDVLKTFKVDGKVSVNGETVHREEEKERECPTVAPAHSLTKSQMFEGVARVHGSPLELKQDNGSIEINIKKPNSVPQELAATTEKTEPNSQEDKNDGGKSRKGNIELASSEPQHFTTTVTRCSPTVAFVEFPSSPQLKNDVSEEKDQKKPENEMSGKVELVLSQKVVKPKSPEPEATLTFPFLDKMPEANQLHLPNLNSQVDSPSSEKSPVMTPQFKFWAWDPEEERRRQEKWQQEQERLLQERYQKEQDKLKEEWEKAQKEVEEEERRYYEEERKIIEDTVVPFTVSSSSADQLSTSSSMTEGSGTMNKIDLGNCQDEKQDRRWKKSFQGDDSDLLLKTRESDRLEEKGSLTEGALAHSGNPVSKGVHEDHQLDTEAGAPHCGTNPQLAQDPSQNQQTSNPTHSSEDVKPKTLPLDKSINHQIESPSERRKKSPREHFQAGPFSPCSPTPPGQSPNRSISGKKLCSSCGLPLGKGAAMIIETLNLYFHIQCFRCGICKGQLGDAVSGTDVRIRNGLLNCNDCYMRSRSAGQPTTL [LIMCH1]	0.188	51.2 °C	52 °C	-0.237	4.62	6.09
MSALEWYAHKSLGDGIFWIQERFYESGNRANIWLVRGSEQDVVIDTGLGLRSLPEYLYSSGLLQDREAKEDAARRPLLAVATHVHFDHSGGLYQFDRVAVHHAEAEALARGDNFETVTWLSDSEVVRTPSPGWRARQFRVQAVQPTLILQDGDVINLGDRQLTVMHMPGHSRGSICLHDKDRKILFSGDVVYDGSLIDWLPYSRISDYVGTCERLIELVDRGLVEKVLPGHFNTFGAERLFRLASNYISKAGICHKVSTFAMRSLASLALRVTNSRTSP [MBLAC2]	-0.203	55.4 °C	54.6 °C	0.0124	-1.94	-1.79
MAQVLRGTVTDFPGFDERADAETLRKAMKGLGTDEESILTLLTSRSNAQRQEISAAFKTLFGRDLLDDLKSELTGKFEKLIVALMKPSRLYDAYELKHALKGAGTNEKVLTEIIASRTPEELRAIKQVYEEEYGSSLEDDVVGDTSGYYQRMLVVLLQANRDPDAGIDEAQVEQDAQALFQAGELKWGTDEEKFITIFGTRSVSHLRKVFDKYMTISGFQIEETIDRETSGNLEQLLLAVVKSIRSIPAYLAETLYYAMKGAGTDDHTLIRVMVSRSEIDLFNIRKEFRKNFATSLYSMIKGDTSGDYKKALLLLCGEDD [ANXA5]	0.363	49.4 °C	49.4 °C	0.0486	5.64	5.5
MTTYSDKGAKPERGRFLHFHSVTFWVGNAKQATSFYCSKMGFEPLAYRGLETGSREVVSHVIKQGKIVFVLSSALNPWNKEMGDHLVKHGDGVKDIAFEVEDCDYIVQKARERGAKIMREPWVEQDKFGKVKFAVLQTYGDTTHTLVEKMNYIGQFLPGYEAPAFMDPLLPKLPKCSLEMIDHIVGNQPDQEMVSASEWYLKNLQFHRFWSVDDTQVHTEYSSLRSIVVANYEESIKMPINEPAPGKKKSQIQEYVDYNGGAGVQHIALKTEDIITAIRHLRERGLEFLSVPSTYYKQLREKLKTAKIKVKENIDALEELKILVDYDEKGYLLQIFTKPVQDRPTLFLEVIQRHNHQGFGAGNFNSLFKAFEEEQNLRGNLTNMETNGVVPGM [HPD]	0.143	53.6 °C	53.5 °C	-0.0296	1.14	1.46
MAGAIASRMSFSSLKRKQPKTFTVRIVTMDAEMEFNCEMKWKGKDLFDLVCRTLGLRETWFFGLQYTIKDTVAWLKMDKKVLDHDVSKEEPVTFHFLAKFYPENAEEELVQEITQHLFFLQVKKQILDEKIYCPPEASVLLASYAVQAKYGDYDPSVHKRGFLAQEELLPKRVINLYQMTPEMWEERITAWYAEHRGRARDEAEMEYLKIAQDLEMYGVNYFAIRNKKGTELLLGVDALGLHIYDPENRLTPKISFPWNEIRNISYSDKEFTIKPLDKKIDVFKFNSSKLRVNKLILQLCIGNHDLFMRRRKADSLEVQQMKAQAREEKARKQMERQRLAREKQMREEAERTRDELERRLLQMKEEATMANEALMRSEETADLLAEKAQITEEEAKLLAQKAAEAEQEMQRIKATAIRTEEEKRLMEQKVLEAEVLALKMAEESERRAKEADQLKQDLQEAREAERRAKQKLLEIATKPTYPPMNPIPAPLPPDIPSFNLIGDSLSFDFKDTDMKRLSMEIEKEKVEYMEKSKHLQEQLNELKTEIEALKLKERETALDILHNENSDRGGSSKHNTIKKLTLQSAKSRVAFFEEL [NF2]	-0.161	51.6 °C	50.7 °C	-0.0393	0.0456	0.294
TTN	-0.476	50.4 °C	51.5 °C	0.167	2.14	1.45
MDNSGKEAEAMALLAEAERKVKNSQSFFSGLFGGSSKIEEACEIYARAANMFKMAKNWSAAGNAFCQAAQLHLQLQSKHDAATCFVDAGNAFKKADPQEAINCLMRAIEIYTDMGRFTIAAKHHISIAEIYETELVDIEKAIAHYEQSADYYKGEESNSSANKCLLKVAGYAALLEQYQKAIDIYEQVGTNAMDSPLLKYSAKDYFFKAALCHFCIDMLNAKLAVQKYEELFPAFSDSRECKLMKKLLEAHEEQNVDSYTESVKEYDSISRLDQWLTTMLLRIKKTIQGDEEDLR [NAPA]	0.324	51.7 °C	52.2 °C	0.0471	-0.447	-0.81
HELZ	0.00285	52.3 °C	52.3 °C	-0.131	-0.338	-0.16
MQRVSGLLSWTLSRVLWLSGLSEPGAARQPRIMEEKALEVYDLIRTIRDPEKPNTLEELEVVSESCVEVQEINEEEYLVIIRFTPTVPHCSLATLIGLCLRVKLQRCLPFKHKLEIYISEGTHSTEEDINKQINDKERVAAAMENPNLREIVEQCVLEPD [FAM96A]	0.0285	54.9 °C	55.3 °C	0.184	0.017	-0.983
MAGGGAGDPGLGAAAAPAPETREHLFKVLVIGELGVGKTSIIKRYVHQLFSQHYRATIGVDFALKVLNWDSRTLVRLQLWDIAGQERFGNMTRVYYKEAVGAFVVFDISRSSTFEAVLKWKSDLDSKVHLPNGSPIPAVLLANKCDQNKDSSQSPSQVDQFCKEHGFAGWFETSAKDNINIEEAARFLVEKILVNHQSFPNEENDVDKIKLDQETLRAENKSQCC [RAB32]	-0.00216	51.8 °C	53.4 °C	-0.0818	4.46	2.79
OLA1	0.346	51.3 °C	51.2 °C	-0.109	1.23	0.644
GALK1	0.313	52.6 °C	52.7 °C	-0.117	3.18	1.65
MLEEDMEVAIKMVVVGNGAVGKSSMIQRYCKGIFTKDYKKTIGVDFLERQIQVNDEDVRLMLWDTAGQEEFDAITKAYYRGAQACVLVFSTTDRESFEAVSSWREKVVAEVGDIPTVLVQNKIDLLDDSCIKNEEAEALAKRLKLRFYRTSVKEDLNVNEVFKYLAEKYLQKLKQQIAEDPELTHSSSNKIGVFNTSGGSHSGQNSGTLNGGDVINLRPNKQRTKKNRNPFSSCSIP [RAB23]	-0.0011	53.2 °C	53.2 °C	-0.139	1.88	1.67
MQGGEPVSTMKVSESEGKLEGQATAVTPNKNSSCGGGISSSSSSRGGSAKGWQYSDHMENVYGYLMKYTNLVTGWQYRFFVLNNEAGLLEYFVNEQSRNQKPRGTLQLAGAVISPSDEDSHTFTVNAASGEQYKLRATDAKERQHWVSRLQICTQHHTEAIGKNNPPLKSRSFSLASSSNSPISQRRPSQNAISFFNVGHSKLQSLSKRTNLPPDHLVEVREMMSHAEGQQRDLIRRIECLPTSGHLSSLDQDLLMLKATSMATMNCLNDCFHILQLQHASHQKGSLPSGTTIEWLEPKISLSNHYKNGADQPFATDQSKPVAVPEEQPVAESGLLAREPEEINADDEIEDTCDHKEDDLGAVEEQRSVILHLLSQLKLGMDLTRVVLPTFILEKRSLLEMYADFMSHPDLFIAITNGATAEDRMIRFVEYYLTSFHEGRKGAIAKKPYNPIIGETFHCSWKMPKSEVASSVFSSSSTQGVTNHAPLSGESLTQVGSDCYTVRFVAEQVSHHPPVSGFYAECTERKMCVNAHVWTKSKFLGMSIGVTMVGEGILSLLEHGEEYTFSLPCAYARSILTVPWVELGGKVSVNCAKTGYSASITFHTKPFYGGKLHRVTAEVKHNITNTVVCRVQGEWNSVLEFTYSNGETKYVDLTKLAVTKKRVRPLEKQDPFESRRLWKNVTDSLRESEIDKATEHKHTLEERQRTEERHRTETGTPWKTKYFIKEGDGWVYHKPLWKIIPTTQPAE [OSBPL11]	-0.139	50 °C	50.4 °C	-0.0415	0.575	1.25
MGASARLLRAVIMGAPGSGKGTVSSRITTHFELKHLSSGDLLRDNMLRGTEIGVLAKAFIDQGKLIPDDVMTRLALHELKNLTQYSWLLDGFPRTLPQAEALDRAYQIDTVINLNVPFEVIKQRLTARWIHPASGRVYNIEFNPPKTVGIDDLTGEPLIQREDDKPETVIKRLKAYEDQTKPVLEYYQKKGVLETFSGTETNKIWPYVYAFLQTKVPQRSQKASVTP [AK3]	0.43	54.3 °C	54.2 °C	0.00633	-1.02	-2.48

Reference: the supplement of paper PMC5998384
